Experiment: soluble on expression in E. coli; label from the status in PepcDB or PDB records

Row | Sequence | soluble on expression in E. coli
1 | MSLSVRFAGMATCVPKRVVSNLTDCKPQIRPERERLVRNIGIELRRLTQEWQCFSDLAFDAASKLIESLEWKLEEIDALIVVTQSPDYLAPATAIILQDRLGLPHTTLAFDVNLGCSGYPFGLHLLGSLISAGGIKKGLVLVGDSGAQLNDPIFSDAGTATAMEFCADAPPMYFDLNSDGSGHKAIILPVGGHREPVGIQHLVPFRENENDHWHRAIDLQLDGTAVLSFSTQRVPPAVEKLLEYANASKDEVDYFIFHQANRMINETIRKKLALPVEKVPSTLRDFGNTSGASLPVTMTARINKQLEEGSKRLVLSGFGIGLSWGTCLVDIQGAKFPDLIESEGHHHHHH | not soluble
2 | MKTRSEVFQFEKELKWEHPAPGIRRQIMGYDGQLMMVKVEFEKGAVGTLHEHYHSQATYVASGKFELTIGDRKEILSTGDGYYVAPDEPHGCVCLEAGVLIDTFSPMRADFLE | not soluble
3 | MGSDKIHHHHHHMKLVVATNFDDSLLEGLKRYPDVKYIFGSFKRTITGHGRAGFIVPHIKEEQFETHISLAHSYGIKFLYTMNTNTLLGKEYDTEFIGKVMKEVDKLVNFGVDGFIVALPFLIRLIRTEYPDLEVSASSFSRIRNVREVEEYTNLGVNTIIMHEDANRDFKLLKEVAALSRANRFEIELILNNSCLYGCPFRLTHDNISSVTSMVNGVNDVWFEYPVLLCATDVLNDPANLIRSRWIRPEDIKYYEEIGINRFKIAGRNKKTDWILRVVKAYAERKYEGDLLDLVSYPQGRAATKAVQMVNGPSSYFILTSVRIDNTKFPKGWIKFFFTNDCDTRSCKECKYCDIVAERVMTVNGEPFKSSEWSIRQPYPINIIPKFKERK | not soluble
4 | MQTSPLLTQLMEALRCLPGVGPKSAQRMAFTLLQRDRSGGMRLAQALTRAMSEIGHCADCRTFTEQDVCNICSNPRRQENGQICVVESPADIYAIEQTGQFSGRYFVLMGHLSPLDGIGPDDIGLDRLEQRLASEKISELILATNPTVEGEATANYIAELCAEAGVEASRIAHGVPVGGELEMVDGTTLSHSLAGRHKIIF | not soluble
5 | MIDLYFAPTPNGHKITLFLEEAELDYRLIKVDLGKGGQFRPEFLRISPNNKIPAIVDHSPADGGEPLSLFESGAILLYLAEKTGLFLSHETRERAATLQWLFWQVGGLGPMLGQNHHFNHAAPQTIPYAIERYQVETQRLYHVLNKRLENSPWLGGENYSIADIACWPWVNAWTRQRIDLAMYPAVKNWHERIRSRPATGQALLKAQLGDERSDS | soluble
6 | MAHHHHHHMKKASKNSNYHGLEKSLRRRGGKIKTIYEKYKDIDFQNIIDEKIKYVWNYINNIDDIISDEEFLKEEIKQKLEKKQSLKKNDDFDEIIYYNKNVKNLINIQKVRKALYHFNIKVDMEDIMHMFLYYTNQDYFLKFIQNNIYSKNYVERKMDKYKFTSININNLYINYEMFKFIFLNIDMNIEQNGQMW | not soluble
7 | AVSDQRLSEATLRELEDERQRAGLPEKPEIPEGWTIDRKPGVTHFTMRKSHGDEEIILQLTGEDRSNEEITRTLDVLVVNGGKALVFGMSVEDGEFVINNVCFRHDGKLALDTSAEAQFQKSQLYMGPDLADLEDHLVDSFTSYLSARGVNDTLANFIDQFSLWSEQADYEEWLSSINKFVS | soluble
8 | MGKKMVVALGGNAILSNDASAHAQQQALVQTSAYLVHLIKQGHRLIVSHGNGPQVGNLLLQQQAADSEKNPAMPLDTCVAMTQGSIGYWLSNALNQELNKAGIKKQVATVLTQVVVDPADEAFKNPTKPIGPFLTEAEAKEAMQAGAIFKEDAGRGWRKVVPSPKPIDIHEAETINTLIKNDIITISCGGGGIPVVGQELKGVEAVIDKDFASEKLAELVDADALVILTGVDYVCINYGKPDEKQLTNVTVAELEEYKQAGHFAPGSMLPKIEAAIQFVESQPNKQAIITSLENLGSMSGDEIVGTVVTK | soluble
9 | MSLPDKFKRVHVVVMDSVGIGEAPDAAKFGDFDVDTFGHIAKHVGGLKMPEMGKLGLSNIREIEGIKKAEKPLAYYTKMQEASNGKDTMTGHWEIMGLYIDTPFRVFPDGFPDDLINQIEEKTGRKVIGNKPASGTEIMAELGEEHVKTGALIVYTSADSVLQIAAHEDVVPLEELYEICEFCRKITLDDPYMLGRIIARPFVGEPGAFVRTPNRHDYALKPFKPTVMDALKDGGKDVIAIGKISDIFDGEGVTESIRTKSNMDGMDQFIAVLDKDFNGMSFLNLVDFDALFGHRRDPQGYADALVDFDGRLVEVMEKLTDDDLLIITADHGNDPTYTGTDHTREFVPLLVYSPRFKNGGSELELRKTFADLGATVADNFDVKMPEYGTSFLRDLKEGHHHHHH | not soluble
10 | AVHITLDPDTANPWLILSEDRRQVRLGDTQQSIPGNEERFDSYPMVLGAQHFHSGKHYWEVDVTGKEAWDLGVCRDSVRRKGHFLLSSKSGFWTIWLWNKQKYEAGTYPQTPLHLQVPPCQVGIFLDYEAGMVSFYNITDHGSLIYSFSECAFTGPLRPFFSPGFNDGGKNTAPLTLCPLNIGSQG | not soluble
11 | MSLTKDILILAVETSCDETSVSVIKNGRDILSNTVLSQIESHKRFGGVVPEVASRHHVEGITTTINEALVDADVSMEDIDAIAVTEGPGLIGALLIGVNAAKALAFAYDKPLIPVHHIAGHIYANHIEEPLTFPLIALIVSGGHTELVYMKDHLSFEVIGETRDDAVGEAYDKVARTIGLNYPGGPQVDRLAAEGEDTYSFPRVWLDKDSYDFSFSGLKSAVINQLHNQRQKNIPIIEANVATSFQNSVVEVLTFKAIQACKEYSVQRLIVAGGVASNKGLRQSLADQCKVNDIQLTIPSPKLCTDNAAMIGVAGHSLYQQGRFADLALNGHSNIDLEEYSAEEGHHHHHH | soluble
12 | MNRRVPKSKSWKTRLSAGGANRTSLHGQMSRYPEVAEDYLIMQPSIRRSSGSDLMPVARFNNFKRWNSCLQHVESQPEDIREWDPPPPSSHCPQIYHKSQYSRRERSPDILTDDRGRPIPRRGMFLNAKYSEAARPPIDEDRIRHTEDVIKRMLYKGRRKESMGYYPNRNHLMRDQIRQTVYNLGVPNGYRAPEQDHFEDDYDDQPGPSNRHYGVSSHPEYYREDRWRLAEGDYEVDKGDGSRQLNKEKYLKKRRKQMIERESVDSEISEEEEEEEIYNKQTKRRRSQKTPIQHNKNRTESRLHQKEKSSSDEEVHEKSTSSRHSNVSRSSKSPYLNDDRAPSRGSKCTSSHHSTPKLLTPSPQYLKDSDDDDNWKNSIPFMSSSDGAGAGMRVRIGSAIASLPLRDDSKNSYSEVALMLLERSVKNLKNPQKMLIKEKPQTRIMNMSTSWAQQDPKKRNENDDDEIVPETEKAETSLMHDLSRIQHPQNATTVQMDQTLFTNSKLMKIDVAIAKNWLDTKMKKTLIPPPLFRSSPISEDVFKSSDRITMPSTIKGPESTAVGNRISSDGEEEDFATKQFDIDDYIARGASKIDFSKTITAPNTSFQEPSTSLFKDPTFFRQESKGNEMNIESFSERTPSKNRTSQQMEFQISTSSISKTKTNASLDSIHRRKSKPQPMLEFDAETQKMFDDAFQSDKKSTKEKYPF | not soluble
13 | GPGSMSARPSVSVYSASSDSVVGTCPLPAVFTAPIRSDIVKFVHTNMAKNSRQAYAVNRLSGMNHSAHSWGTGRAVARIPRISGGGTSTSGAGAFGNMCRGGRMFAPTKIFRRWHRKINLHQKRFAVVSALAASSVPSLVMSRGHQIGNVPEVPLVVEDSIQGYEKTKEAMAFLKAIAAIDDVNRVNDSREIRAGRGKMRNRRYVARRGPMLVMPNNKGTRAFRNIFGLDLANVSALNLLHLAPGGHVGRFVIWTQSAFEQLDKIFGTFTEASAVKKGFTLPAPMLTNTDVTRIMQSEEVRRVLKPKKLQAKKASRFQTPTNGMKNRRLRLRLNPYVKRETAAAKGMRNVANRDARRKAKLARVTKAKKAATKSAKQ | not soluble
14 | MGSDKIHHHHHHMSQNASNDHMALSEDYVRNFFTYADPDNEAMLQLYRIGVFRTAKALSAGWIMPDEDARTARNLEYLRDNFEPGDVSVGELVSSETQLASFPDIYFRIRKVLDSPNSSADDISREISNDLGLTAKLLKLVNSPFYGLAHTVEDVSHAIAIVGVEEVSTLALGISAINVFKDIPQELIDMKAFWKHSVSCGVFAKLIASRIEGMKADKFFTAGLLHDVGRLIIFKKMPYASVQLLLYARENQLPVVESEEDHLGFDHTQVAKQLLTEWKFPASMVDCLAFHHAPSQAQDQLAASILQLADNMANAMEISSGGMYLLPGMEEGAWERIPLQGDDLVEIVGLFDSHIEELFKAIL | not soluble
15 | MNADKFVETTISDFMRLNSSRDFEYFVSIAKQLYSRGCRDYYTEAFLTHLKTIFPITEENAEKWLKYGEMLGTVGEKDFRTDIFEQMMKDFVDSNKLSQIAAKFHGFVESVDDWNLLAECLFSRVRALEHKINLTASAPMATDPSESSC | not soluble
16 | MGSDKIHHHHHHACRQVATESRVQPASFEVGSSMIADTFFLDSLSLFMPETNEEALINNIDRVYESNGRYFILDKRMKQVLCYTLSGKHLFTIHAVGNGKGEYVDLFDIAIDEAENKLLLLTYPSQILYYDLEGTYLSSYPLDDTYQSFAVDKGFIYLRNDTYANGVVSDYSLIVINKETGKQTSLLEPLYETAPFCSSGNYQITNTASVLFTRKFDNHIYRITGESIEPLYMVDWKDKAFPESDKQRQFQCNDLNQLCYQGKYVYTMTDLCDTPSYLLFRTNQPGMCLLSKATSTVNNYQVIINTDYQLPLPNYMSVEGKQSRIFFIYSSEVLCEQKKLSAEEDINEKMSSLLGQIKEGDNPVIFTYHVK | not soluble
17 | MSLAALDPITPAGGGTWRFPANEPLRLDSGGVIEGLEIAYQTYGQLNADKSNAVLICHALTGDQHVASPHPTTGKPGWWQRLVGPGKPLDPARHFIICSNVIGGCMGSTGPASINPATGKTYGLSFPVITIADMVRAQAMLVSALGVETLFAVVGGSMGGMQVQQWAVDYPERMFSAVVLASASRHSAQNIAFHEVGRQAIMADPDWRGGAYAEHGVRPEKGLAVARMAAHITYLSEPALQRKFGRELQRDGLSWGFDADFQVESYLRHQGSSFVDRFDANSYLYITRAMDYFDIAASHGGVLAKAFTRARNVRFCVLSFSSDWLYPTAENRHLVRALTAAGARAAFAEIESDKGHDAFLLDEPVMDAALEGFLASAERDRGLVEGHHHHHH | soluble
18 | MENQEVVLSIDAIQEPEQIKFNMSLKNQSERAIEFQFSTGQKFELVVYDSEHKERYRYSKEKMFTQAFQNLTLESGETYDFSDVWKEVPEPGTYEVKVTFKGRAENLKQVQAVQQFEVKMAGDPLEHHHHHH | soluble
19 | QRISLEIMTLQPRCEDVETAEGVALTVTGVAQVKIMTEKELLAVACEQFLGKNVQDIKNVVLQTLEGHLRSILGTLTVEQIYQDRDQFAKLVREVAAPDVGRMGIEILSFTIKDVYDKVDYLSSLGKTQT | soluble
20 | MDNFMDYIYRDFHIMQQTYATLVSVNNKIQIQTDKYSDNITSRQYMTILAIFHLPEDETTLNNIAKKLGTTKQNIKQIINILEGKGYVQTMPSKQDKRAINVSVTKEGWQVAESYAEKSFELFGDIFNDFSVEEMKILWMLLKKLYRFDGEEQDGFEEDANPSGELTEEQIEMAEAFARRRREKYGSK | not soluble
21 | MGHHHHHHSHMKATSVIDDFLGGYFCILGLLQPHLERVAIDALQLCCLLLPPPNRRKLQLLMRMISRMSQNVDMPKLHDAMGTRSLMIHTFSRCVLCCAEEVDLDELLAGRLVSFLMDHHQEILQVPSYLQTAVEKHLDYLKKGHIENPGDGLFAPLPTYSYCKQISAQEFDEQKVSTSQAAIAELLENIIKNRSLPLKEKRKKLKQFQKEYPLIYQKRFPTTESEAALFGDKPTIKQPMLILRKPKFRSLR | not soluble
